According to patent US20180346588A1 (MOGAM INSTITUTE FOR BIOMEDICAL RESEARCH, published 2018):
Numbering of substitutions follows the chain as printed.

B1: clone MS502 anti-MSLN antibody (antibody, V domains shown)
VH: EVQLLESGGGLVQPGGSLRLSCAASGFTFSNYAMSWVRQAPGKGLEWVSGIPPDSGSKYYADSVRGRFTVSRDNSKNTLYLQMNSLRAEDTAVYYCAKNMLSFDYWGQGTLVTVSS
VL: QSVLTQPPSASGTPGQRVTISCTGSSSNIGSNAVSWYQQLPGTAPKLLIYYNSKRPSGVPDRFSGSKSGTSASLAISGLRSEDEADYYCGSWDSSLNGYVFGGGTKVTVLG
notes: SPR and FACS done with IgG: human IgG1 heavy chain constant region
B2: clone 2-78-C2G4 antibody (antibody, V domains shown)
VH: B1 VH with L101F
VL: B1 VL with S94P
notes: IgG (human IgG1 heavy chain constant region; light chain constant region said to be human kappa)
B3: clone MI323 anti-MSLN antibody (antibody, V domains shown)
VH: EVQLQQSGPELVKPGTSVKISCKASGYSFTSYFIQWVKQRPGQGLEWIGWIFPGSGNTKYNEMFKGKATLAADTSSSTAYMQLSSLTSEDSAVYFCARSGGYQYYFDYWGQGTSVTVSS
VL: DIVMTQSHKFMSTSVGDRVSITCKASQDVSTAVAWYQQKPGQSPKLLIYSASYRYPGVPDRFTGSGSGTDFTFTISSVQAEDLALYYCQQHYSTPWTFGGGTKLEIKR
notes: also called M1323
B4: clone MI403 anti-MSLN antibody (antibody, V domains shown)
VH: EVQVVESGGGLVKPGGSLKLSCAASGFAFSSYDMSWVRQTPEKRLEWVAYISSGGGSTYYPDTVKGRFTISRDNAKNTLYLQMNSLKSEDTAMYYCARQGTAVKNYWYFDVWGAGTSVTVSS
VL: DIVMTQSPASLAVSLGQRATISCRASQSVSTSSSSYVHWYQQRPGQPPKLLIKYASNLESGVPARFSGSGSGTDFTLNIHPVEEEDTGTYYCQHSWEIPFTFGSGTKLEIKR
notes: also called M1403
B5: clone MI329 anti-MSLN antibody (antibody, V domains shown)
VH: EVMLVESGGDLVKPGGSLKLSCAASGFTFSSYAMSWVRRTPEKRLEWVATINSDGSYTFYPDSVKGRFTISRDNAKNTLYLQMNSLRSEDTAMYYCARWGENWYFDVWGAGTTVTVSS
VL: DVVMTQTPLSLPVSLGDQASISCRSSQSLVHSNGNTYLHWYLQKPGQSPKLLIYKVSNRFSGVPDRFSGSGSGTDFTLKISRVEAEDLGIYFCSQSTHFPRTFGGATKLELKR
notes: also called M1329
B6: clone C2G1 (MS502 light chain variable region mutation antibody) (antibody, V domains shown)
VH: B1 VH
VL: B1 VL with S31P, N97S
notes: SPR done with IgG (human IgG1 heavy constant region)
B7: clone C2G4 (MS502 light chain variable region mutation antibody) (antibody, V domains shown)
VH: B1 VH
VL: B1 VL with S94P
notes: as for B6
B8: clone C3C8 (MS502 light chain variable region mutation antibody) (antibody, V domains shown)
VH: B1 VH
VL: B1 VL with S31P, S95D, N97R
notes: as for B6

The binders below were run against T1, human mesothelin (MSLN) on the cell surface (human, UniProt Q13421 296-598) (assay: FACS on MiaPaCa-MSLN #2 cells, upper histogram and table).
T1 construct: also called MSLN of mesothelioma (H226, H2052) and pancreatic cancer (AsPC-1) cell lines; MSLN on MiaPaCa-MSLN #2 cells
T1 sequence (Q13421 other isoform, or with tags, fused parts or gaps limits assumed): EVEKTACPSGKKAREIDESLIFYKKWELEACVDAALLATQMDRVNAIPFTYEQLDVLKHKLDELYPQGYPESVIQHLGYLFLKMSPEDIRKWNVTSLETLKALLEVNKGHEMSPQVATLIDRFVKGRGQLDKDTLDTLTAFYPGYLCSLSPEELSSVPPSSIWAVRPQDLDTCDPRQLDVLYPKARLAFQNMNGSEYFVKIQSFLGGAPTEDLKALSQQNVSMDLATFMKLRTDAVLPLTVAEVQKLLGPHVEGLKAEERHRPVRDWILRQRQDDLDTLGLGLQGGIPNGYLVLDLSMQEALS

Binder	Mean, FL2-H
B1	2280
B2	2280
B3	2880

Each binder was assayed against T2, recombinant human mesothelin (MSLN) (human, UniProt Q13421 296-580, limits assumed) (assay: SPR, Biacore T-200; MSLN amine-coupled to CM5 chip, IgG in flow).
T2 construct: also called human MSLN; recombinant human MSLN
T2 sequence (Q13421 other isoform, or with tags, fused parts or gaps limits assumed): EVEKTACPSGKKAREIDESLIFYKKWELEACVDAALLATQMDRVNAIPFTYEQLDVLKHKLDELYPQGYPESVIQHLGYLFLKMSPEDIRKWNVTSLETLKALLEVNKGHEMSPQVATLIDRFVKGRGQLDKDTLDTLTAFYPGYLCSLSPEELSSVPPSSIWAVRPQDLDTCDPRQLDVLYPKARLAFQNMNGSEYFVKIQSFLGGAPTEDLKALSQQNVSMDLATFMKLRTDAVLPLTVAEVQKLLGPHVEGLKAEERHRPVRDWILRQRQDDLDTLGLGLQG
Method: Quantitative binding force (affinity) of the purified anti-MSLN antibodies, i.e., MI323, MI329, MI403, MS502 clone antibodies with regard to recombinant human mesothelin (MSLN) was measured by using a Biacore T-200 (GE Healthcare, U.S.A.) biosensor. […] Then, […] serially diluted with HBS-EP buffer (10 mM HEPES, pH7.4, 150 mM NaCl, 3 mM EDTA, 0.005% surfactant P20) was allowed to flow at a concentration range of 0.078 nM to 5 nM and at a flow rate of 30 μL/min for association of 120 seconds and dissociation of 1800 seconds. The dissociation of the antibody bound to the MSLN was induced by flowing 10 mM Glycine-HCl pH 1.5 at a flow rate of 30 μL/min for 30 seconds (Table 7). The affinity was obtained as movement speed constants (Kₒₙ and Koff) and an equilibrium dissociation constant (KD) by using a Biacore T-200 evaluation software (Table 8).

Binder	Kd
B4	0.45 nM
B1	0.23 nM
B3	0.18 nM
B5	0.035 nM

Target: T2, recombinant human mesothelin (MSLN)
Test: as above
Remark: another data set of the same source
Method: Quantitative binding force (affinity) of the purified anti-MSLN antibodies, i.e., the MS502 clone light chain variable region mutation antibodies C2G1, C2G4, and C3C8 with regard to the recombinant human mesothelin (MSLN) was measured by using a Biacore T-200 (GE Healthcare, U.S.A.) biosensor. […] Then, the clone C2G1 antibody, the clone C2G4 antibody or the clone C3C8 antibody serially diluted with HBS-EP buffer (10 mM HEPES, pH7.4, 150 mM NaCl, 3 mM EDTA, 0.005% surfactant P20) was allowed to flow at a concentration range of 0.078 nM to 5 nM and at a flow rate of 30 μL/min for association of 120 seconds and dissociation of 1800 seconds. The dissociation of the antibody bound to the MSLN was induced by flowing 10 mM Glycine-HCl pH 1.5 at a flow rate of 30 μL/min for 30 seconds (Table 13). The affinity was obtained as movement speed constants (Kₒₙ and Koff) and an equilibrium dissociation constant (KD) by using a Biacore T-200 evaluation software (Table 14).

Binder	Kd
B6	0.0939 nM
B7	0.0432 nM
B8	0.122 nM

Target: T2, recombinant human mesothelin (MSLN)
Test: as above
Remark: another data set of the same source
Method: The quantitative binding force (affinity) of each of the purified anti-MSLN antibodies, i.e., MS502 clone heavy chain variable region mutation antibodies 56, 2-30, 2-73, 2-78, and the combination antibodies of the C2G4 light chain variable region and the heavy chain variable region mutation antibodies including 56-C2G4, 2-30-C2G4, 2-73-C2G4, 2-78-C2G4 with regard to recombinant human mesothelin (MSLN) was measured by using a Biacore T-200 (GE Healthcare, U.S.A.) biosensor. […] Then, the clone 56 antibody, the clone 2-30 antibody, the clone 2-73 antibody, the clone 2-78 antibody, the clone 56-C2G4 antibody, the clone 2-30-C2G4 antibody, the clone 2-73-C2G4 antibody, and the clone 2-78-C2G4 antibody serially diluted with HBS-EP buffer (10 mM HEPES, pH7.4, 150 mM NaCl, 3 mM EDTA, 0.005% surfactant P20) were allowed to flow at a concentration range of 0.078 nM to 5 nM and at a flow rate of 30 μL/min for association of 120 seconds and dissociation of 1800 seconds. The dissociation of the antibody bound to the MSLN was induced by flowing 10 mM Glycine-HCl pH 1.5 at a flow rate of 30 μL/min for 30 seconds (Table 17). The affinity was obtained as movement speed constants (Kₒₙ and Koff) and an equilibrium dissociation constant (KD) by using a Biacore T-200 evaluation software (Table 18).

Binder	Kd
B2	0.0372 nM

What follows are binders tested against T1, human mesothelin (MSLN) on the cell … (assay: FACS on MSLN stable cell line (#2), left panels; sheet note: 1st Ab 1 µg (1st assay), 2nd Ab anti-human Fc antibody FITC).
Method: FACS test was performed on the MSLN present in the cell surface with regard to MiaPaCa-MSLN which is a cell line in which the MSLN was artificially expressed. Cells to be analyzed that were grown in a culture dish were separated by adding a Tryple Express solution and stored in a 50 mL tube, followed by centrifugation at 2000 rpm at room temperature for 3 minutes to decant the culture fluid, and the obtained product was washed once with PBS. The cells were suspended with FACS buffer, and transferred to a round bottom tube and centrifuged at 2000 rpm at room temperature for 3 minutes. The supernatant was discarded and the cells were well-loosened with the FACS buffer so as to have a cell density of 4×10⁵/mL. Then, 1 μg of candidate antibody was added thereto at 4° C. After 1 hour, the resultant material was washed with the FACS buffer twice, and goat-derived anti-human IgG antibody (FITC junction) was added in an amount of 1 μL for each sample to be combined at 4° C. for 30 minutes. The cells were collected by centrifugation at 2000 rpm for 3 minutes, and 500 μL of fixation buffer was added to resuspend the cells, and the cells were measured by FACS calibur (FIG. 6).
The FACS test was performed to evaluate whether the anti-MSLN antibody was selectively bound to the MSLN-overexpressing cell line (MiaPaCa-MSLN #2). The anti-MSLN candidate antibody was labeled by the method described in Example 4-2 above, and the cells were measured by FACS calibur (FIG. 7).

Binder	Mean, FL1-H
B4	250
B1	293
B3	419
B5	410
